The results in this text go back to patent publication US20080153161A1, “Genetically Encoded Photosensitizers and Methods for Using Same” (priority 2005, published 2008).

In series [1] the test system is B16 melanoma cells. Briefly: Phototoxicity of TMRM compared with mitochondrial KillerRed in B16 melanoma cells. It counts as cell-based. The note with it: 100 nM, 3.3 W/cm2 green light. The method, then: The phototoxicity of mitochondrial KillerRed was compared with the phototoxicity of tetramethylrhodamine (TMRM)—a red fluorescent dye capable of producing ROS which accumulates in mitochondria of living cells. B16 melanoma cells were preincubated with 100 nM TMRM for 20 min at 37° C. and irradiated by 3.3 W/cm2 green light (40× objective, 535-575 nm) for time periods of 10 sec, 1 min, 5 min, and longer. […] Irradiation for 1 min led to cell death within 30-40 min. The effect was similar to that obtained by 15-min irradiation of the KillerRed-expressing cells under the same conditions.

Series [2] has as its system B16 melanoma cells. Description: Light-induced killing of B16 melanoma cells expressing mitochondrially targeted KillerRed. To be noted: pre-incubated with 10 μM inhibitor, 1.5 hour post illumination. The class given is cell-based. The text has this: Mitochondrial localization of a photosensitizer is known to be effective in photodynamic therapy, leading preferentially to apoptotic cell death. To provide for a more pronounced phototoxic effect, KillerRed was targeted to mitochondria by cloning it in frame with a double N-terminal mitochondrial localization signal and the resulting construct was transiently transfected into B16 melanoma cells. Exposure of mitochondrially targeted KillerRed expressing B16 melanoma cells to green light for 15 minutes using lower irradiation intensity (40× objective, 535-575 nm excitation filter, 3.3 W/cm2) led to nearly 100% cell death within 45 min after irradiation (FIG. 8B). If pre-incubated with 10 μM pancaspase inhibitor zVAD-fmk, the cells survived identical irradiation and preserved their native shape within 1.5 hour post illumination. This indicates the apoptotic way of the mitochondrially targeted KillerRed-mediated cell death.

Series [3] concerns beta-gal. Briefly: Inhibitory analysis with specific ROS quenchers in the in vitro beta-gal CALI system. To be noted: superoxide dismutase 500 u/ml with catalase 500 u/ml; mannitol 67 mM; sodium azide 20 mM. It counts as biochemical, E. coli. As to the method:
White and hatched columns show β-gal activity for the intact and irradiated samples, respectively.
The mechanism of the KillerRed-mediated effect was tested using inhibitory analysis. A specific ROS quenchers were added to the in vitro beta-gal CALI system described above (FIG. 6).

Series [4] relates to E. coli (XL1-Blue strain). Description: Screening of fluorescent and chromo-proteins for phototoxic effect in E. coli (CFU after white light). It counts as cell-based. The note with it: for phototoxic effect: E. coli expressing the protein, white light 1 hour, CFU irradiated vs non-irradiated. The text has this:
Looking for a GFP-like protein, which could be used as an efficient photosensitizer, we screened different proteins for a phototoxic effect in E. coli including: • (1) Anemonia majano fluorescent protein AmCyan (also noted to as FP486, GenBank ID AF168421; Clontech); • (2) Zoanthus sp. fluorescent protein ZsGreen FP506 (also noted to as FP506, GenBank ID AF168422; Clontech); • (3) red fluorescent protein DsRed2 (Clontech); • (4) Anemonia sulcata GFP-like chromoprotein asulCP FP595 (also noted to as FP595, GenBank ID AF246709); • (5) asulCPW94F protein, a mutant of chromoprotein FP595 comprising W94F amino acid substitution; • (6) commercially available red fluorescent protein AsRed2 (Clontech); • (7) Dendronephthya sp. green fluorescent protein dendGFP (GenBank ID AF420591); • (8) Goniopora tenuidens GFP-like chromoprotein, gtenCP (GenBank ID AF383156); • (9) aceGFP (GenBank ID AY233272); • (10) circularly permutated aceGFP (GenBank ID AY233272) variant, cpT1 having nucleotide and amino acid sequences shown in SEQ ID NOS: 5, 6.; • (11) monomeric mutant of dendGFP protein, dendQ4mono, having nucleotide and amino acid sequences shown in SEQ ID NOS: 7, 8.; • (12) EGFP, the most popular Aequorea GFP mutant variant (GenBank ID U55763); • (13) chromoprotein am2CP(PCT/RU03/00474; SEQ ID NOS: 9, 10); • (14) red fluorescent protein KillerRed (JR18IC+)(SEQ ID NOS: 3, 4), developed on the basis of chromoprotein am2CP by random mutagenesis; and • (15) non-colored mutant of FP506 protein, ZsGreenY66A, containing mutation Y66A which eliminates the chromophore, was used as a negative control.
Synthetic genes encoding proteins listed above were cloned into the pQE30 vector and transformed into E. coli (XL1-Blue strain). For each protein tested, protein expressing cells were taken from one E. coli colony, diluted into 1 ml of PBS buffer and divided into two portions. One of them was irradiated with white light (light source Fiber-Light from Dolan-Jenner Industries, Inc) for 1 hour. Then both samples aliquots were sowed to the Petri dishes at different dilutions. The number of growing colonies corresponded to the number of bacteria cells surviving after irradiation (i.e. colony forming units, CFU). The CFU number for the irradiated E. coli portion was compared to non-irradiated one, thus allowing an estimate of the relative phototoxic effect for every of the proteins tested.
Comparing to the wild type chromoprotein anm2CP, KillerRed contains amino acid changes T145N and C161A (corresponding to positions 148 and 165 in Aequorea victoria GFP), which are spatially close to the chromophore and affect fluorescent properties, and a number of folding mutations. […]

Series [5] relates to E. coli (XL1-Blue strain). Briefly: Time course of survival of E. coli expressing fluorescent proteins under white light. It counts as cell-based. As to the method: To compare the KillerRed phototoxic effect with the effect of DsRed2 fluorescent protein, pQE30 vectors encoding KillerRed, DsRed2 or ZsGreenY66A non-colored protein were prepared as described in Example 1. E. coli (XL1-Blue strain) were transformed with said pQE30 vectors. The cells expressing ZsGreenY66A was used as a negative control. We estimated the percent of cells surviving after bacteria irradiation for 5, 10, 20, 40 and 60 minutes. […] The graph of FIG. 2 indicates the number of colonies, which grew without irradiation and after irradiation for the corresponding period of time.

The test system of the next series is E. coli. Briefly: Action spectrum of KillerRed phototoxic effect (green vs blue light). The class given is cell-based. The text has this:
FIG. 3 illustrates excitation (dotted line) and emission (solid line) spectra for KillerRed protein. Hatched and white rectangles show relative phototoxic effect from irradiation with blue (460-490 nm) and green (540-580 nm) light, respectively. Numbers above the rectangles represent the decrease in the number of viable cells after 10-min irradiation (folds).
Further we roughly checked the action spectrum for KillerRed phototoxic effect (FIG. 3).

The next series relates to 293T human kidney cells. Briefly: Light-induced killing of 293T cells expressing KillerRed in cytoplasm. It counts as cell-based. The text has this:
For expression in eukaryotic cells, the PCR-amplified Agel-NotI fragments from pQE30 vectors encoding KillerRed and DsRed2 (obtained as described in the Example 1) were PCR amplified and inserted in lieu of the EGFP-coding region in the pEGFP-N1 vector (Clontech).
293T human kidney cells were transiently cotransfected with these vectors and the AcGFP1-C1 vector (Clontech) using Lipofectamine reagent (Invitrogen). The cells of interest were characterized with high expression levels of both green fluorescent protein AcGFP1 and KillerRed (or DsRed2 in a control experiment). Cells were irradiated with intense green light for 10 min (100× objective, 535-575 nm excitation filter, 5.8 W/cm2). Mortality of irradiated KillerRed expressing cells reached 40-60%, depending on protein concentration (FIG. 8A).
At the same time, neighboring cells with a lower KillerRed expression level survived irradiation, presumably due to the lower concentration of the phototoxic agent. […] A Leica confocal inverted microscope TCS SP2 equipped with 125 mW Ar and 1 mW HeNe lasers was used for cell imaging. A LaserCheck (Coherent) power meter was used to measure total power of the excitation light after the microscope objective.

Series [6] concerns the target beta-gal (Escherichia coli, UniProt P00722, DEL12-42). The note with it: beta-gal mixed with KillerRed (unfused), E. coli extracts.
Description: O-nitrophenyl (ONP) absorption after 15 min o-nitrophenyl-D galactoside (ONPG) incubation is proportional to β-gal enzymatic activity.
Aliquots were either incubated under white light (1 W/cm2, light source Fiber-Light from Dolan-Jenner Industries, Inc) or kept in the dark. The entire volume of the tube was illuminated. Beta-gal activity was assayed in light-illuminated and “dark” aliquots calorimetrically.
For series [7], the target named is T1, pleckstrin homology (PH) domain of phospholipase C delta-1 (PLC delta-1) (Homo sapiens, UniProt P51178).
T1 sequence (P51178 1-224): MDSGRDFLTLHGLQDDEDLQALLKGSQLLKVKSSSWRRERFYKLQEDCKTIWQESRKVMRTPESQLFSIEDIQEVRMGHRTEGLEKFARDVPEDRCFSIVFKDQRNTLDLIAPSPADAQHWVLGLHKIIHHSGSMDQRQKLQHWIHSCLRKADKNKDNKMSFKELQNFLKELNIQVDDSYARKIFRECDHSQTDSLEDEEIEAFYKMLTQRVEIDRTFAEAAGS
Description: KillerRed-mediated CALI of PH domain in mammalian cells (membrane to cytoplasm translocation). To be noted: KillerRed expressed separately from the PH domain, in membrane or cytosol.
Description: KillerRed-mediated CALI was further tested in mammalian cells (FIG. 7). The pleckstrin homology (PH) domain of phospholipase C delta-1 (PLC delta-1) was used as a model protein. The PH domain locates to the inner leaf of plasma membrane due to its high affinity for membrane phospholipids. It has been shown that in case of direct protein inactivation by dye-generated ROS, the PH domain will lose its membrane affinity and become evenly distributed throughout the cell volume.
A coding sequence for the first 224 amino acids of PLC delta-1 comprising the N-terminal PH-domain was amplified from Fetus Brain cDNA (Clontech) with specific PCR primers. […] Primers used comprised certain restriction sites that were used for following cloning of PCR products into pEGFP-Tub plasmid (Clontech) in frame with EGFP. As a result, a PH domain fusion with EGFP and triple fusions EGFP-PH-KillerRed and EGFP-PH-DsRed-Express operatively linked with CMV promoter were obtained.
The 293T cell-derived Phoenix Eco cell line was transiently transfected with these constructs. Intracellular localization of PLC delta-1 was evaluated using EGFP signal before and after CALI of the PH domain using confocal and fluorescence microscopy. Fluorescence was monitored using a Leica Confocal Microscope DM IRE2 TCS SP2. […]

Entries after “also recorded” stand apart in the source; their conditions may differ. Where a SMILES comes first, the peptide text is derived from it. The star is where a group is joined. Cbz = O=C(OCc1ccccc1)*; CH2F = FC*

beta-gal (Escherichia coli, UniProt P00722, DEL12-42), sequence (P00722 whole entry, stated change not applied, the tested form may be a part): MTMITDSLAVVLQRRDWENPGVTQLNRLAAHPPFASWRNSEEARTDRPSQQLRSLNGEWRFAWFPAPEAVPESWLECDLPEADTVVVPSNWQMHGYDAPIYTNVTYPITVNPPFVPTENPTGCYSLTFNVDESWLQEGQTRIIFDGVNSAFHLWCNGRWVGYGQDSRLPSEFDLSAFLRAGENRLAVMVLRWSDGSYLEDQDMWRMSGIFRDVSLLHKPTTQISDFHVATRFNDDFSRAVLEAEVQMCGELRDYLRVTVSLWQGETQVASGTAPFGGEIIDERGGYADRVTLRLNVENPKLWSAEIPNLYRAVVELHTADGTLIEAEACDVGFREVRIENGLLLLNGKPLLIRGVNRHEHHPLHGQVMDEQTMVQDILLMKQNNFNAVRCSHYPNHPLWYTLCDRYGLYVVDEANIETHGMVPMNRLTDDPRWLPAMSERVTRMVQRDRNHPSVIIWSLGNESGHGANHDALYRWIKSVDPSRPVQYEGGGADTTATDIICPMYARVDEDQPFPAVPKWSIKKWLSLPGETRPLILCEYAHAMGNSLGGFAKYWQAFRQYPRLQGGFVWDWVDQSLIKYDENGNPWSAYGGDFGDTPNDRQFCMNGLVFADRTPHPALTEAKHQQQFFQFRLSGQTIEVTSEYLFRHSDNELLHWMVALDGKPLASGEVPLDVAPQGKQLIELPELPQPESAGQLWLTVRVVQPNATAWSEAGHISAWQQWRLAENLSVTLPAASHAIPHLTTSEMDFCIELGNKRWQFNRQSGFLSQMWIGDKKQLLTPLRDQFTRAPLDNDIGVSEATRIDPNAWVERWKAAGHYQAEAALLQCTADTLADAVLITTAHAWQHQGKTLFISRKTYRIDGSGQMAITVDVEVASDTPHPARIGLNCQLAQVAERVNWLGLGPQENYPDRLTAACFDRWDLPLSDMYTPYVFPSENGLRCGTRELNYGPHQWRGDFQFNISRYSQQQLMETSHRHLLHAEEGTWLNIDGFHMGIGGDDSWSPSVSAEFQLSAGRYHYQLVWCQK
beta-gal (Escherichia coli, UniProt P00722, DEL12-42), sequence (P00722 with tags, fused parts or gaps DEL12-42): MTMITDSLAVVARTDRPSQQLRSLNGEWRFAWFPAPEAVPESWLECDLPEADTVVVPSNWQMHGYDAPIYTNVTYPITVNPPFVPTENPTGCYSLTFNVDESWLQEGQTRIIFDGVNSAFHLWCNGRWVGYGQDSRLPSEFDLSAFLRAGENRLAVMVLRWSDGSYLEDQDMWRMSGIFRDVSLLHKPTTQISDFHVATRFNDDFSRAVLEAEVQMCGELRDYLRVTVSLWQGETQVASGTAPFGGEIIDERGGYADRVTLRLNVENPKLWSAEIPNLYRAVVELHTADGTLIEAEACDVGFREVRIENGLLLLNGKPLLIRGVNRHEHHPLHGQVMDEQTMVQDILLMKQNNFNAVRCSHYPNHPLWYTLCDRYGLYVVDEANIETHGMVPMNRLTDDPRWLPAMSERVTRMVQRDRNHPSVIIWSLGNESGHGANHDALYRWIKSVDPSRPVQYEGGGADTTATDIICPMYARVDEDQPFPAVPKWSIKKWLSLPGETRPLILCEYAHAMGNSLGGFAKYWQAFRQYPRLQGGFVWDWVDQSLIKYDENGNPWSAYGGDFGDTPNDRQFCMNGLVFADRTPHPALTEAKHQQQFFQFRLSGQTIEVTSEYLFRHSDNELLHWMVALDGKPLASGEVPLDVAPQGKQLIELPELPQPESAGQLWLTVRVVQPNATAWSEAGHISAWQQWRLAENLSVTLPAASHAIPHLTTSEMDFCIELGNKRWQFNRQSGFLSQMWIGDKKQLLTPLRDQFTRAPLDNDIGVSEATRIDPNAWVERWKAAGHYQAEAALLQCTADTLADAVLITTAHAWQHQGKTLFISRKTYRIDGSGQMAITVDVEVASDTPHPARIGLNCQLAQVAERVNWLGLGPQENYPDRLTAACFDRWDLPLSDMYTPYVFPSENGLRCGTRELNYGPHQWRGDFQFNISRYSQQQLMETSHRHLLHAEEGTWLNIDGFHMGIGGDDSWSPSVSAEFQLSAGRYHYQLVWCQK

Consider `CN(C)c1ccc2c(-c3ccccc3C(=O)[O-])c3ccc(N(C)C)cc3[o+]c2c1` [TMRM, tetramethylrhodamine], for which the cell death entry with B16 melanoma cells [1] (irradiation for 10 sec, within 1.5 h interval) is “didn't lead to TMRM-loaded cells' death”; in the series on B16 melanoma cells [1] (irradiation for 5 minutes or longer), “immediate cell death”. Also, the “time to cell death” value in the series on B16 melanoma cells [1] (irradiation for 1 min) was 30 to 40 min.
On to `COC(=O)C[C@H](NC(=O)[C@H](C)NC(=O)[C@@H](NC(=O)OCc1ccccc1)C(C)C)C(=O)CF` [zVAD-fmk] (Cbz-Val-Ala-Asp(OMe)-CH2F), for which, in the series on B16 melanoma cells [2], the “cell survival after identical irradiation” value is on record as “survived”.
As to superoxide dismutase, in the series with beta-gal [3], the “effect of quencher on CALI of beta-gal” value is “impeded CALI slightly”.

B1: KillerRed: red fluorescent protein (SEQ ID NO: 4), developed from chromoprotein anm2CP by random mutagenesis; genetically encoded photosensitizer (protein)
chain: EGGPALFQSDMTFKIFIDGEVNGQKFTIVADGSSKFPHGDFNVHAVCETGKLPMSWKPICHLIQYGEPFFARYPNGISHFAQECFPEGLSIDRTVRFENDGTMTSHHTYELDDTCVVSRITVNCDGFQPDGPIMRDQLVDILPNETHMFPHGPDAVRQLAFIGFTTADGGLMMGHFDSKMTFNGSRAIEIPGPHFVTIITKQMRDTSDKRDHVCQREVAYAHSVPRITSAIGSDED
modifications: amino acid sequence for the red fluorescent protein JR18IC+
notes: genetically encoded photosensitizer
In the case of B1, the phototoxic effect entry in series [4] is recorded as “striking phototoxic effect; also recorded: most strongly expressed”. In [4] (after 1 hour irradiation with white light), this molecule registered a bacteria killed of 99.95%. For the same molecule, the cells killed in series [5] (after 10 minutes of irradiation with white light) is 96%; in series [5] (after 20 minutes of irradiation with white light) it was about 100%. Moreover, the cell killing effect result was “weak effect” in the series with E. coli (blue light irradiation (FITC filter set)) and “strong cell killing effect” in the series on E. coli (green light irradiation (TRITC filter set)). Moreover, in the series on 293T human kidney cells (green light 10 min, 535-575 nm, 5.8 W/cm2, depending on protein concentration), the “Mortality of irradiated cells” value is 40-60%. In addition, the “fate of irradiated cell” value in the series with 293T human kidney cells (highly expressing cell, post irradiation with green light 10 min) was “disintegrated within an hour and a half”. In addition, the “effect of irradiation on enzyme activity” value in the series with beta-gal [6] is “no effect”. Besides, the “CALI of the PH domain” value in series [7] was “no detectable CALI”.

B2: S3-2 (protein)
chain: EGGPALFQSDMTFKIFIDGVVNGQKFTIVADGSSKFPHGDFNVHAVCETGKLPMSWKPICHLIQYGEPFFARYPNGISHFAQECFPEGLSIDRTVRFENDGTMTSHHTYELDGTCVVSRITVNCDGFQPDGPIMRDQLVDILPNETHMFPHGPNAVRQLAFIGFTTADGGLMMSHFDSKMTFNGSRAIKIPGPHFVTTITKQMKDTSDKRDHVCQREVTYAHSVPRITSAI
modifications: amino acid sequence for the red fluorescent protein S3-2
For the molecule B2, the phototoxic effect entry in series [4] is “phototoxic”.

B3: anm2CP: wild type Anthomedusae chromoprotein (SEQ ID NOs: 9 and 10) (protein)
chain: MEGGPALFQSDMTFKIFIDGVVNDQKFTIIADGSSKFPHGDFNVHAVCETGKLPMSWKPICHLIQYGEPFFAKYPNGISHFAQECFPEGLTIDRTVRFENDGTMTSHHTYELDGTCVISRITVNCDGFQPDGPIMKDQLVDILPTETHMFPHGSNAVRQLCYIGFTTADGGLMMSHFDSKLTFNGSRAIKIPGPHFVTVIIKQMKDTSDKRDHVCQREVTYAHSVPRITSAI
modifications: hydromedusa 2 from sub-order Anthomedusae
For B3, in series [4], the phototoxic effect entry is reported as “not phototoxic”.
